Each block holds one molecule with its values, some of them ahead of it.
Key:
NMDAR = NMDAR EPSCs in DCN cartwheel cells in brain slices, ZX1 potentiation; assay type: cell-based, mice; conditions: nimodipine 20 μM at least 20 minutes prior to recordings; ZX1 100 μM
GluN1/2A receptors = molecular target: T1, GluN1/2A receptors (Rattus norvegicus, UniProt Q00959); test: Zinc inhibition of glutamate-evoked currents in tSA201 cells transfected with GluN1/GluN2A; assay type: cell-based; conditions: vehicle, 1 mM glutamate steady-state current, read-out: IC50 for zinc block in vehicle treated cells
T1 construct: expressed in transfected cells; host or cells: human embryonic kidney tSA201 cells
T1 sequence (Q00959 23-1464, other chains not shown): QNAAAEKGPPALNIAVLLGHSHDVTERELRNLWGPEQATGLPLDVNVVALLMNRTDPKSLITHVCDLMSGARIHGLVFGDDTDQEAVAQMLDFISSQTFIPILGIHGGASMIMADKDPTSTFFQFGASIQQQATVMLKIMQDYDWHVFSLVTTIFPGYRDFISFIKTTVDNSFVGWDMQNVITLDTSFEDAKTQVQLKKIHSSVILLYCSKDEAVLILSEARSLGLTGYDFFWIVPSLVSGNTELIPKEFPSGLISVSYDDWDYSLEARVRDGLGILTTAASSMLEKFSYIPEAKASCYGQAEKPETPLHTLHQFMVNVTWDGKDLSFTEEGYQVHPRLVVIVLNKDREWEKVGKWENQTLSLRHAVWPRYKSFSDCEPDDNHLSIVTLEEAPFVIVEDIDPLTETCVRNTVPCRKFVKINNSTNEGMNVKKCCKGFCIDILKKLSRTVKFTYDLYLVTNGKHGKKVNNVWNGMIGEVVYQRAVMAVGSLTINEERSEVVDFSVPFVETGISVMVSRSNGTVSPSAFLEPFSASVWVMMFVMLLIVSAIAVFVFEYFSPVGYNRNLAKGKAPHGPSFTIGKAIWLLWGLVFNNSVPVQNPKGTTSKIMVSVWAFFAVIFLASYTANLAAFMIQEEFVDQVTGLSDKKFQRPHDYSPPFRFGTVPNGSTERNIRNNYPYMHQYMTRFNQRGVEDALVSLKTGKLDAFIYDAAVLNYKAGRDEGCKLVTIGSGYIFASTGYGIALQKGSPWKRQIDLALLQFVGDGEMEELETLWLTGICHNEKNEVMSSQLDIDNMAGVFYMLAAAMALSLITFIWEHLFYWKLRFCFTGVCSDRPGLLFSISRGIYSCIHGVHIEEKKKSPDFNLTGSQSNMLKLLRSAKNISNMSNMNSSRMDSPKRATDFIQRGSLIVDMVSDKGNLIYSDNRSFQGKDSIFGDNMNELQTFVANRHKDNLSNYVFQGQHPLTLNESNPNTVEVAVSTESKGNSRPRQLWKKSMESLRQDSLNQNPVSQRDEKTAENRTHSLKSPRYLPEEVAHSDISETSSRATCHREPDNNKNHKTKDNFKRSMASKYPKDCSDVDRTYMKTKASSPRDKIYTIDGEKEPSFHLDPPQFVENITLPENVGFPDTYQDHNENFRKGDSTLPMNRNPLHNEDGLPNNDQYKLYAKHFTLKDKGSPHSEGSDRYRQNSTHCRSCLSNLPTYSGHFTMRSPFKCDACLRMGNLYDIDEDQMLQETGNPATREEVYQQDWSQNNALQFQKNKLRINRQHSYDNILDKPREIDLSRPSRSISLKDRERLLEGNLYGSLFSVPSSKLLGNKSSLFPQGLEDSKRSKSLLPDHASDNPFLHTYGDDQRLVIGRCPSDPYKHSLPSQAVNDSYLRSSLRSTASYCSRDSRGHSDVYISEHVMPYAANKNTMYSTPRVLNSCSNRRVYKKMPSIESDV
Experimental: Human embryonic kidney tSA201 cells were maintained in DMEM supplemented with 10% fetal bovine serum and 1% GlutaMAX, as previously described (Glasgow and Johnson, 2014). Cells were plated in 35 mm petri dishes with three 15 mm glass coverslips treated with poly D-lysine (0.1 mg/ml) and rat-tail collagen (0.1 mg/ml) at a density of 1×10^5 cells/dish. Eighteen to 30 hours after plating, the cells were co-transfected using FuGENE 6 Transfection Reagent with cDNA encoding enhanced green fluorescent protein (eGFP), for identification of transfected cells, and WT rat NMDAR subunits GluN1-1a (GluN1; GenBank X63255) and GluN2A (GenBank M91561 in pcDNA1). GluN1-1 a and eGFP were expressed using a specialized pCl-neo vector with cDNA encoding eGFP inserted between the CMV promoter and the GluN1 open reading frame (Yi et al., 2018). […]
Whole-cell voltage-clamp recordings from tSA201 cells were performed 18-30 hours after transfection. […] Whole-cell currents were recorded using an Axopatch 200A patch-clamp amplifier (Molecular Devices), low-pass filtered at 5 kHz, and sampled at 20 kHz in pClamp10.7 (Molecular Devices). In all recordings from tSA201 cells, series resistance was compensated 85-90% and an empirically determined −6 mV liquid junction potential between the intracellular pipette solution and the extracellular recording solution was corrected. […]

[1] = molecular target: ZnT1 in mouse brain slices (mouse) (UniProt Q60738); test: cell-based or functional assay
[2] = molecular target: T2, GluN2A subunit of NMDAR in rat cortical cultures (rat, UniProt Q00959 23-1464); test: proximity ligation assay in rat cortical cultures (FIG. 3A legend)
T2 construct: whole, on cells; Endogenous protein in neurons, detected with a mouse anti-GluN2A antibody in the PLA
T2 sequence (Q00959 23-1464): as the sequence (Q00959 23-1464, other chains not shown) above

- Average effect of ZX1 on L2/3 PN NMDAR Lev-EPSCs amplitudes normalized to control, auditory cortex slices incubated with scramble [1]: 159%
- Average effect of ZX1 on L2/3 PN NMDAR Lev-EPSCs amplitudes normalized to control, auditory cortex slices incubated with the peptide [1]: 99%
- ZX1 potentiation of NMDAR EPSCs, DCN cartwheel cells, 100 Hz, slices treated with N2AZ [1]: 1.95%
- ZX1 potentiation of NMDAR-mediated synaptic currents, DCN cartwheel cells, 20 Hz, slices treated with N2AZ (3 µM) [1]: 19.4%
- ZX1 potentiation of NMDAR-mediated synaptic currents, DCN cartwheel cells, 20 Hz, slices treated with scN2AZ (3 µM) [1]: 47.3%
Molecule: GluN2A subunit of NMDAR in mouse brain slices (from UniProt P35436 23-1464) (receptor)

- binding result [2]: binds
B1: ZnT1 in rat cortical cultures (other, UniProt Q62720 1-507, looked up)
chain: MGCWGRNRGRLLCMLLLTFMFMVLEVVVSRVTASLAMLSDSFHMLSDVLALVVALVAERFARRTHATQKNTFGWIRAEVMGALVNAIFLTGLCFAILLEAVERFIEPHEMQQPLVVLSVGVAGLLVNVLGLCLFHHHSGEGQGAGHGHSHGHGHGHLAKGARKAGRAGGEAGAPPGRAPDQEPDQEETNTLVANTSNSNGLKADQAEPEKLRSDDPVDVQVNGNLIQESDSLESEDNRAGQLNMRGVFLHVLGDALGSVIVVVNALVFYFSWKGCTEDDFCVNPCFPDPCKSSVELMNSTQAPMHEAGPCWVLYLDPTLCIIMVCILLYTTYPLLKESALILLQTVPKQIDIKHLVKELRDVEGVEEVHELHVWQLAGSRIIATAHIKCEDPASYMQVAKTIKDVFHNHGIHATTIQPEFASVGSKSSVVPCELACRTQCALKQCCGTRPQVHSGKEAEKAPTVSISCLELSENLEKKPRRTKAEGSVPAVVIEIKNVPNKQPESSL
notes: whole, on cells; Endogenous protein in neurons, detected with a rabbit anti-ZnT1 antibody in the PLA; also called zinc transporter 1

The next lines start with the molecule.

Molecule: COCCOC(=O)C1=C(C)NC(C)=C(C(=O)OC(C)C)C1c1cccc([N+](=O)[O-])c1 (centres unmarked) [Nimodipine, reference compound]
- ZX1 potentiation of NMDAR EPSCs in nimodipine-treated slices (NMDAR): 23.6±6.9%

Molecule: [Zn+2] [zinc]
- IC50 (GluN1/2A receptors): 21.8 ± 2.09 nM
